Reference: the supplement of paper PMC9732359
± gives the uncertainty stated by the source.

Assay: protein stability index of a GFP-peptide fusion (yeast GPS) (PSI 1-4); higher = more stable; sorted into four equal gates, so the index is relative within each strain
How it was run: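 For each peptide, the protein stability index sums the read frequency in every gate after multiplying it by the gate number. Read frequencies came from plasmids that were PCR-amplified from each gate and Illumina-sequenced, with reads assigned to strains by barcodes. The gates were four equal bins of GFP/Cherry fluorescence ratio applied to mid-log yeast in leucine-free medium carrying a pooled library of tiled 17-residue yeast protein peptides fused downstream of GFP on a Cherry-expressing plasmid.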

## FYDIRSLLERHIPRLIP [YJL039C/NUP192]
doa10∆
  protein stability index: 2.79 ± 0.049
pdr5∆
  protein stability index: 2.46 ± 0.046
san1∆
  protein stability index: 2.2 ± 0.048
ubr1∆
  protein stability index: 2.77 ± 0.055

## FYVPQARNVTFDSLRNF [GRR1]
doa10∆
  protein stability index: 2.04 ± 0.08
pdr5∆
  protein stability index: 2.27 ± 0.075
san1∆
  protein stability index: 2.52 ± 0.08
ubr1∆
  protein stability index: 2.22 ± 0.059

## GAASNRTKFVRSLVREI [RPL36A]
doa10∆
  protein stability index: 3.22 ± 0.27
pdr5∆
  protein stability index: 2.59 ± 0.25
san1∆
  protein stability index: 3.02 ± 0.13
ubr1∆
  protein stability index: 3.25 ± 0.12

## GAGIQIIMQADLALKMG [FAS2]
doa10∆
  protein stability index: 1.84 ± 0.094
pdr5∆
  protein stability index: 2.09 ± 0.065
san1∆
  protein stability index: 1.73 ± 0.071
ubr1∆
  protein stability index: 2.03 ± 0.051

## GAGSAFGFSSSGTAATG [YOR098C/NUP1]
doa10∆
  protein stability index: 3.47 ± 0.2
pdr5∆
  protein stability index: 3.41 ± 0.15
san1∆
  protein stability index: 3.41 ± 0.17
ubr1∆
  protein stability index: 3.57 ± 0.14

## GAHGYSGFYTFSLLDHH [PRE1]
doa10∆
  protein stability index: 2.94 ± 0.19
pdr5∆
  protein stability index: 2.44 ± 0.16
san1∆
  protein stability index: 2.92 ± 0.098
ubr1∆
  protein stability index: 2.76 ± 0.12

## GAHLGRFVIWTEAAFTK [RPL4A]
doa10∆
  protein stability index: 2.87 ± 0.21
pdr5∆
  protein stability index: 3.04 ± 0.2
ubr1∆
  protein stability index: 2.54 ± 0.25

## GAIDEALEEAKLSDNIS [YDL116W/NUP84]
doa10∆
  protein stability index: 3.17 ± 0.11
pdr5∆
  protein stability index: 3.25 ± 0.091
san1∆
  protein stability index: 3.41 ± 0.07
ubr1∆
  protein stability index: 3.3 ± 0.045

## GAKPEEKKDDNSSKPAF [YJL041W/NSP1]
doa10∆
  protein stability index: 3.29 ± 0.12
pdr5∆
  protein stability index: 3.38 ± 0.14
san1∆
  protein stability index: 2.87 ± 0.082
ubr1∆
  protein stability index: 2.86 ± 0.078

## GAKQTQGGAMNKKSEQA [SRP72]
doa10∆
  protein stability index: 2.77 ± 0.067
pdr5∆
  protein stability index: 3.07 ± 0.07
san1∆
  protein stability index: 3.26 ± 0.049
ubr1∆
  protein stability index: 3.47 ± 0.054

## GALKGASDGGLYVPHSE [RPL5]
doa10∆
  protein stability index: 1.91 ± 0.083
pdr5∆
  protein stability index: 1.88 ± 0.073
san1∆
  protein stability index: 2.83 ± 0.088
ubr1∆
  protein stability index: 2.67 ± 0.052

## GCKNGSFTLLNQLSQTN [NUT1]
doa10∆
  protein stability index: 2.86 ± 0.12
pdr5∆
  protein stability index: 3.05 ± 0.079
san1∆
  protein stability index: 2.97 ± 0.095
ubr1∆
  protein stability index: 3.22 ± 0.11

## GDAAPAEEAAAEEEEES [RPP0]
pdr5∆
  protein stability index: 3.67 ± 0.16
san1∆
  protein stability index: 3.29 ± 0.13
ubr1∆
  protein stability index: 3.44 ± 0.12

## GDFLDFQVHERLAPLIK [ARP7]
doa10∆
  protein stability index: 3.29 ± 0.16
pdr5∆
  protein stability index: 3.29 ± 0.13
san1∆
  protein stability index: 3.42 ± 0.1
ubr1∆
  protein stability index: 3.47 ± 0.098

## GDVGKNHITEFPSIPLP [RPC31]
doa10∆
  protein stability index: 3.21 ± 0.087
pdr5∆
  protein stability index: 3.23 ± 0.087
san1∆
  protein stability index: 3.31 ± 0.079
ubr1∆
  protein stability index: 3.22 ± 0.093

## GEANKHHWEDLQKRVIE [RPN5]
doa10∆
  protein stability index: 2.98 ± 0.26
pdr5∆
  protein stability index: 3.4 ± 0.26
san1∆
  protein stability index: 2.93 ± 0.18
ubr1∆
  protein stability index: 3.81 ± 0.27

## GEDSTKPLGPCDVFWVQ [POP1]
doa10∆
  protein stability index: 3.12 ± 0.094
pdr5∆
  protein stability index: 2.97 ± 0.082
san1∆
  protein stability index: 3.17 ± 0.072
ubr1∆
  protein stability index: 2.8 ± 0.057

## GEFETKIAGIEGHLAEI [SRB2]
ubr1∆
  protein stability index: 3.1 ± 0.13

## GEKIDSNKPIFLFAPEL [SWI1]
doa10∆
  protein stability index: 2.62 ± 0.1
pdr5∆
  protein stability index: 2.54 ± 0.21
san1∆
  protein stability index: 2.59 ± 0.21
ubr1∆
  protein stability index: 2.91 ± 0.23

## GELRSYLKGATGHSQGL [FAS1]
ubr1∆
  protein stability index: 3.87 ± 0.22

## GEPEAGNKALEDEEEFS [RPC34]
doa10∆
  protein stability index: 3.18 ± 0.13
pdr5∆
  protein stability index: 3.26 ± 0.26

## GESEKSSDVDMDDEEWR [RPC53]
doa10∆
  protein stability index: 3.7 ± 0.22
pdr5∆
  protein stability index: 3.63 ± 0.21
san1∆
  protein stability index: 3.35 ± 0.21
ubr1∆
  protein stability index: 3.33 ± 0.18

## GEVMKELSEEKYIVKAS [RPT4]
doa10∆
  protein stability index: 3.25 ± 0.061
pdr5∆
  protein stability index: 3.38 ± 0.072
san1∆
  protein stability index: 3.41 ± 0.043
ubr1∆
  protein stability index: 3.3 ± 0.042

## GEYSVKLLKGATLYIPK [FAS2]
pdr5∆
  protein stability index: 2.87 ± 0.21
san1∆
  protein stability index: 2.9 ± 0.12

## GFGILEDGMIIDVNLNF [RRP40]
doa10∆
  protein stability index: 3.08 ± 0.089
pdr5∆
  protein stability index: 3.21 ± 0.075
san1∆
  protein stability index: 3.19 ± 0.089
ubr1∆
  protein stability index: 3.02 ± 0.076

## GFGLVYNSVAEAKKFEP [RPS24A]
doa10∆
  protein stability index: 3.22 ± 0.1
pdr5∆
  protein stability index: 3.47 ± 0.13
san1∆
  protein stability index: 2.87 ± 0.1
ubr1∆
  protein stability index: 2.8 ± 0.14

## GFINQKNLKPQEQLKNV [YIL149C/MLP2]
doa10∆
  protein stability index: 3.09 ± 0.11
pdr5∆
  protein stability index: 2.84 ± 0.081
san1∆
  protein stability index: 2.77 ± 0.062
ubr1∆
  protein stability index: 2.9 ± 0.068

## GFKWLNKLDEYHGLYTN [LIN1]
doa10∆
  protein stability index: 1.81 ± 0.056
pdr5∆
  protein stability index: 1.79 ± 0.056
san1∆
  protein stability index: 1.88 ± 0.056
ubr1∆
  protein stability index: 1.67 ± 0.068
